Experimental data as given in article doi:10.1101/725622 (bioRxiv, 2019).

Target: V2R-bound βarr1 in HEK-293 cells (V2R: Homo sapiens; βarr1: Rattus …, UniProt P30518;P29066)
Test: co-IP

binding result: binds
B1: Ib30 (HA-tagged intrabody version of Fab30) (scFv, V domains shown)
VH: EVQLVESGGGLVQPGGSLRLSCAASGFNVYSSSIHWVRQAPGKGLEWVASISSYYGYTYYADSVKGRFTISADTSKNTAYLQMNSLRAEDTAVYYCARSRQFWYSGLDYWGQGTLVTVSS
VL: DIQMTQSPSSLSASVGDRVTITCRASQSVSSAVAWYQQKPGKAPKLLIYSASSLYSGVPSRFSGSRSGTDFTLTISSLQPEDFATYYCQQYKYVPVTFGQGTKVEIK
